{"source": "patent US20160194408A1", "about": "(published 2016)", "binders": {"B1": {"name": "Ab19 (antibody, V domains shown)", "VH": "EVQLVESGGGLVQPGGSLRLSCAASGIDLSSYAMGWVRQAPGKGLEYIGIIVSYGPTYYASWAKGRFTISRDNSKNTVYLQMNSLRAEDTATYFCARDLDAQSSGYYGAFNIWGQGTLVTVSS", "VL": "DIQMTQSPSTLSASVGDRVTITCQASQSISTALAWYQQKPGKAPKLLIYAASPLASGVPSRFSGSGSGTEFTLTISSLQPDDFATYYCQSYYGSSNIAFGGGTKVEIKR"}, "B2": {"name": "Ab2 (antibody, V domains shown)", "VH": "QSVEESGGRLVTPGTPLTLTCTVSGFSLSSYAMSWVRQAPGKGLEWIGIIDAIDNTYYASWAKGRFTISKTSTTVDLKMTSLTTGDTATYFCARASILGYSIATGFNIWGPGTLVTVSS", "VL": "AYDMTQTPASVEVAVGGTVTIKCQASQSISSHLAWYQQKSGQPPKLLIYRASTLESGVSSRFKGSGSGTEFTLTISDLECADAATYYCQQGYGVSDVDNGFGGGTEVVVKR"}, "B3": {"name": "Ab3 (antibody, V domains shown)", "VH": "QSVEESGGRLVTPGGSLTLTCTASGFSLSSYYMSWVRQAPGKGLEWIGIIYPSGSTYYASWAKGRFTISKTSTTVDLKITSPTVEDTATYFCARGGAYATLNLWGPGTLVTVSS", "VL": "AVLTQTPSPVSAAVGGTVTISCQSSQSVYHNNLLSWYQQKPGQPPKLLIYDASKLTSGVSSRFSGSGSGTQFTLTISGVQCDDAATYYCLGGYDDDADNGFGGGTEVVVKR"}, "B4": {"name": "Ab17 (antibody, V domains shown)", "VH": "QEQLEESGGDLVKPEGSLTLTCTASGFSFSSSYWICWVRQAPGKGLEWIGCIRPGSADYYASWAKGRFTISRASSSTVTLQMTSLTAADTATYFCASDINDGWLGQFNLWGPGTLVTVSS", "VL": "DVVMTQTPASVEAAVGGTVTIKCQASLSIADYLAWYLQKPGQPPKLLIYRASTLASGVPSRFKGSGSGTEYTLTISDLECADAATYYCQSYYSVTTNTYGNTFGGGTEVVVKR"}, "B5": {"name": "Ab16 (antibody, V domains shown)", "VH": "QEQLVESGGGLVQPEGSLTLTCTASGFSFSSDYWICWVRQAPGKGLEWIGCIRDGGGSYYANWAKGRLTISMTSSTTVGLKMTSLTAADTATYFCASDINDGWLGQFNLWGPGTLVTVSS", "VL": "DIVMTQTPASVEAAVGGTVTIKCQASQSISSYLAWYQQKPGQPPKLLIYRASTLASGVPSRFSGSGSGTEFTLTISDLECADAATYYCQSYYSVTTVTYGNTFGGGTEVVVKR"}, "B6": {"name": "Ab1 (antibody, V domains shown)", "VH": "QSVEESGGRLVTPGTPLTLTCTVSGFSLSSYWMTWVRQAPGKGLEYIGIISSSGSTYYATWAKGRFTISKTSSTTVDLEITSPTTEDTATYFCARDSAFSSGLEFNIWGPGTLVTVSS", "VL": "AYDLTQTPASVEVAVGGTVTIKCQASQSVYSNWLSWYQQKPGQPPKLLIYDASDLASGVPSRFKGSGSGTQFTLTISGVQCDDAATYYCQQGQSSSDIDNTFGGGTEVVVKR"}, "B7": {"name": "Ab9 (antibody, V domains shown)", "VH": "QSVEESGGRLVTPGTPLTLTCTVSGIDLSSYAMGWVRQAPGKGLEYIGIIVSYGPTYYASWAKGRFTISKTSTTVDLKITSPTAEDTATYFCARDLDANSSGYYGCFNIWGQGTLVTVSS", "VL": "AVVLTQTPASVSAAVGGTVTIKCQASQSISTALAWYQQKPGQPPKLLIYAASPLASGVSSRFKSSGSGTEFTLTISDLECADAATYYCQSYYGSSNIAFGGGTELEILR"}, "B8": {"name": "Ab4 (antibody, V domains shown)", "VH": "QSVEESGGRLVTPGTPLTLTCTVSGIDLSSYAMIWVRQAPEKGLEYIGYIGGIDSTYYASWAKGRFTISKTSTTVDLKMTSPTTEDTATYFCGRWSGTSGYNTIWGPGTLVTVSS", "VL": "DVVMTQTPASVEAAVGGTVTIKCQASQSIYSNLAWYQQKPGQPPKLLIYGASNLASGVSSRFKGSRSGTEYTLTISDLECADAATYYCQCTGGGDSGNTFGGGTEVVVKR"}, "B9": {"name": "Ab22 (antibody, V domains shown)", "VH": "EVQLVESGGGLVQPGGSLRLSCAASGFSLSSYAMNWVRQAPGKGLEWIGAIRSSGATFFASSVNGRFTISRDNSKNTVYLQMNSLRAEDTAVYYCARDTNDGWYINRLDLWGQGTLVTVSS", "VL": "AVLTQSPSTLSASVGDRVTITCQSSKSVYSNYLSWFQQKPGKAPKFLIYKASTLASGVPSRFSGSGSGTEFTLTISSLQPDDFATYYCAGGDTNIADNAFGGGTKVEIKR"}}, "key": {"[1]": {"biological_target": "T1, human Proprotein Convertase Subtilisin-like/Kexin type 9 (UniProt Q8NBP7 31-692)", "experiment": "ELISA"}, "[2]": {"biological_target": "T1, human Proprotein Convertase …", "experiment": "ELISA", "remark": "listed apart in the source"}, "cynomolgus monkey PCSK9": {"biological_target": "T2, cynomolgus monkey PCSK9 (cynomolgus monkey, UniProt A0A7N9D9N8 150-747)", "T2 chain": "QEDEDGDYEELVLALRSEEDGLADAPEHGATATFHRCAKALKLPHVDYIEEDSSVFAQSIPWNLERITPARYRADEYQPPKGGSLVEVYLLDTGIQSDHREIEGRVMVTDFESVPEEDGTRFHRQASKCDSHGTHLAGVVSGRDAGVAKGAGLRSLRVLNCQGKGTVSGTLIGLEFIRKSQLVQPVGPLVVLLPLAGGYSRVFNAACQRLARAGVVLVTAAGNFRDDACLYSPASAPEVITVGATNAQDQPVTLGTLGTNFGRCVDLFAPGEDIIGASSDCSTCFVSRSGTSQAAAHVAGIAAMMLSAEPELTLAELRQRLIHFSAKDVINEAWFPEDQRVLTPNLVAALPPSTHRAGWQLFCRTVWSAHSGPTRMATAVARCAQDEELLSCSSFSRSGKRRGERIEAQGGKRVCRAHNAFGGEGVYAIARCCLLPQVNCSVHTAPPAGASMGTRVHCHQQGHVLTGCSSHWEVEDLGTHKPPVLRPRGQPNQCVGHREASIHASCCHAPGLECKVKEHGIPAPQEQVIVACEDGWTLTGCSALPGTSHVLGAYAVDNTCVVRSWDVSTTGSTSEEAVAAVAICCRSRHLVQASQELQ", "experiment": "ELISA"}, "[3]": {"biological_target": "T1, human Proprotein Convertase …", "experiment": "ELISA", "remark": "listed apart in the source"}, "[4]": {"biological_target": "T1, human Proprotein Convertase …", "experiment": "PCSK9-LDLR blocking ELISA"}, "[5]": {"biological_target": "T1, human Proprotein Convertase …", "experiment": "PCSK9-LDLR blocking ELISA", "remark": "listed apart in the source"}}, "note": "Read-outs that look alike come from different tables or passages of the source."}
{"binder": "B1", "values": [{"measurement": "EC50", "setting": "[1]", "result": 0.943, "unit": "nM"}]}
{"binder": "B2", "values": [{"measurement": "EC50", "setting": "[2]", "result": 0.0936, "unit": "nM"}]}
{"binder": "B3", "values": [{"measurement": "EC50", "setting": "[2]", "result": 0.105, "unit": "nM"}]}
{"binder": "B4", "values": [{"measurement": "EC50", "setting": "cynomolgus monkey PCSK9", "result": 0.278, "unit": "nM"}, {"measurement": "EC50", "setting": "[3]", "result": 0.301, "unit": "nM"}]}
{"binder": "B5", "values": [{"measurement": "EC50", "setting": "cynomolgus monkey PCSK9", "result": 0.31, "unit": "nM"}, {"measurement": "EC50", "setting": "[3]", "result": 0.286, "unit": "nM"}]}
{"binder": "B6", "values": [{"measurement": "EC50", "setting": "[2]", "result": 0.117, "unit": "nM"}]}
{"binder": "B7", "values": [{"measurement": "IC50", "setting": "[4]", "result": 1.59, "unit": "nM"}]}
{"binder": "B8", "values": [{"measurement": "EC50", "setting": "[2]", "result": 0.0843, "unit": "nM"}]}
{"binder": "B9", "values": [{"measurement": "IC50", "setting": "[5]", "result": 3.3, "unit": "nM"}]}
